# Target: 2b-3×Flag (pGD-2b-3×Flag) (cucumber mosaic virus (CMV)) (UniProt Q66125)
substance,measurement,value
VISP1-GFP (pGDGm-VISP1-GFP) (natural protein),"accumulation of 2b-Flag co-expressed with VISP1-Myc, relative to empty vector (immunoblot, N. benthamiana leaves, 60 hpi)",0.11 fold
